Results published in the supplement of paper PMC9112550, “Optimization of the antimicrobial peptide Bac7 by deep mutational scanning” (BMC Biology, 2022).

What follows are sequences tested on Escherichia coli TOP10 (assay: shrunken log2 fold change of peptide-encoding DNA abundance (4.5 h post-induction vs induction); higher = less antimicrobial activity (less host growth inhibition)). Conditions: time post-induction: 4.5 h; library: site-saturation at positions 5, 18, 19, 20.
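Also: peptides expressed intracellularly from a pBAD plasmid library in pooled LB shake-flask culture, induced with 0.3% L-arabinose, DNA abundance read by NGS, three biological replicates, DESeq2 with apeglm shrinkage.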

Row | Sequence | shrunken log2 fold change
1 | RRIRMRPPRLPRPRPRPECHPRP | -0.0482
2 | RRIRRRPPRLPRPRPRPGLDPRP | 0.161
3 | RRIRGRPPRLPRPRPRPEFTPRP | 0.74
4 | RRIRYRPPRLPRPRPRPCIRPRP | -0.023
5 | RRIRYRPPRLPRPRPRPLDSPRP | -0.403
6 | RRIRLRPPRLPRPRPRPEYQPRP | -0.0351
7 | RRIRERPPRLPRPRPRPIPCPRP | -0.341
8 | RRIRTRPPRLPRPRPRPCWKPRP | -0.0202
9 | RRIRSRPPRLPRPRPRPRDKPRP | 0.0811
10 | RRIRVRPPRLPRPRPRPLGWPRP | 0.467
11 | RRIRPRPPRLPRPRPRPGADPRP | 0.407
12 | RRIRKRPPRLPRPRPRPYDWPRP | -0.0468
13 | RRIRGRPPRLPRPRPRPILEPRP | 0.229
14 | RRIRHRPPRLPRPRPRPATKPRP | -0.0317
15 | RRIRNRPPRLPRPRPRPPYWPRP | 0.0294
16 | RRIRIRPPRLPRPRPRPFTHPRP | -0.182
17 | RRIRERPPRLPRPRPRPKVKPRP | 0.0263
18 | RRIRGRPPRLPRPRPRPFITPRP | 0.0604
19 | RRIRTRPPRLPRPRPRPQVKPRP | -0.0733
20 | RRIRFRPPRLPRPRPRPACEPRP | -0.0985
21 | RRIRHRPPRLPRPRPRPNDCPRP | 0.000576
22 | RRIRPRPPRLPRPRPRPPYIPRP | -0.251
23 | RRIRWRPPRLPRPRPRPMKSPRP | 0.252
24 | RRIRDRPPRLPRPRPRPGLHPRP | -6.57e-05
25 | RRIRQRPPRLPRPRPRPDVHPRP | -0.304

Row | Sequence | shrunken log2 fold change
26 | RRIRSRPPRLPRPRPRPYYDPRP | -0.214
27 | RRIRFRPPRLPRPRPRPCECPRP | -0.138
28 | RRIRKRPPRLPRPRPRPVAQPRP | 0.541
29 | RRIRDRPPRLPRPRPRPAWAPRP | 0.713
30 | RRIRNRPPRLPRPRPRPHILPRP | -0.106
31 | RRIRVRPPRLPRPRPRPFRSPRP | -0.267
32 | RRIRARPPRLPRPRPRPAPDPRP | 0.93
33 | RRIRMRPPRLPRPRPRPKKQPRP | 0.0673
34 | RRIRQRPPRLPRPRPRPFRDPRP | -0.117
35 | RRIRQRPPRLPRPRPRPTTMPRP | -0.11
36 | RRIRYRPPRLPRPRPRPCVEPRP | -0.0115
37 | RRIRFRPPRLPRPRPRPLTLPRP | -0.337
38 | RRIRNRPPRLPRPRPRPYQKPRP | -0.0633
39 | RRIRDRPPRLPRPRPRPMSYPRP | -0.0376
40 | RRIRGRPPRLPRPRPRPDMVPRP | -0.0595
41 | RRIRYRPPRLPRPRPRPEKDPRP | 0.0236
42 | RRIRLRPPRLPRPRPRPFCGPRP | -0.126
43 | RRIRTRPPRLPRPRPRPGAEPRP | 0.25
44 | RRIRYRPPRLPRPRPRPGADPRP | -0.177
45 | RRIRDRPPRLPRPRPRPIASPRP | 0.194
46 | RRIRDRPPRLPRPRPRPQPDPRP | 0.177
47 | RRIRNRPPRLPRPRPRPLPWPRP | 0.00924
48 | RRIRMRPPRLPRPRPRPDHYPRP | -0.0146
49 | RRIRDRPPRLPRPRPRPKSVPRP | 0.0458
50 | RRIRARPPRLPRPRPRPWHKPRP | 0.0323

Row | Sequence | shrunken log2 fold change
51 | RRIRERPPRLPRPRPRPSATPRP | 0.0731
52 | RRIRIRPPRLPRPRPRPMSSPRP | -0.215
53 | RRIRARPPRLPRPRPRPTGIPRP | 0.0125
54 | RRIRHRPPRLPRPRPRPPVDPRP | 1.89
55 | RRIRSRPPRLPRPRPRPANPPRP | 0.11
56 | RRIRPRPPRLPRPRPRPPCEPRP | 0.522
57 | RRIRCRPPRLPRPRPRPPAVPRP | 0.645
58 | RRIRPRPPRLPRPRPRPMPKPRP | 0.409
59 | RRIRIRPPRLPRPRPRPAFDPRP | -0.295
60 | RRIRIRPPRLPRPRPRPREGPRP | 0.229
61 | RRIRDRPPRLPRPRPRPRLWPRP | 0.842
62 | RRIRCRPPRLPRPRPRPIVYPRP | -0.788
63 | RRIRVRPPRLPRPRPRPPPPPRP | 1
64 | RRIRLRPPRLPRPRPRPMDYPRP | -0.202
65 | RRIRYRPPRLPRPRPRPEYLPRP | -0.139
66 | RRIRQRPPRLPRPRPRPAQEPRP | 0.852
67 | RRIRSRPPRLPRPRPRPMGKPRP | -0.00865
68 | RRIRMRPPRLPRPRPRPSTNPRP | 0.0712
69 | RRIRPRPPRLPRPRPRPWRVPRP | 0.244
70 | RRIRFRPPRLPRPRPRPHCRPRP | -0.0499
71 | RRIRQRPPRLPRPRPRPFIHPRP | -0.876
72 | RRIRPRPPRLPRPRPRPTFAPRP | 0.409
73 | RRIRYRPPRLPRPRPRPPETPRP | -0.0226
74 | RRIRCRPPRLPRPRPRPNLQPRP | -0.506
75 | RRIRERPPRLPRPRPRPMRPPRP | 0.772

Row | Sequence | shrunken log2 fold change
76 | RRIRLRPPRLPRPRPRPTCRPRP | 0.187
77 | RRIRPRPPRLPRPRPRPQLIPRP | -0.108
78 | RRIRERPPRLPRPRPRPTQLPRP | 0.251
79 | RRIRRRPPRLPRPRPRPGMSPRP | 0.226
80 | RRIRCRPPRLPRPRPRPPFRPRP | 0.377
81 | RRIRGRPPRLPRPRPRPMTCPRP | 0.133
82 | RRIRLRPPRLPRPRPRPTKCPRP | -0.0436
83 | RRIRERPPRLPRPRPRPALFPRP | 0.0738
84 | RRIRPRPPRLPRPRPRPMWCPRP | -0.0757
85 | RRIRTRPPRLPRPRPRPDDCPRP | -0.0459
86 | RRIRQRPPRLPRPRPRPKNEPRP | -0.136
87 | RRIRSRPPRLPRPRPRPTTPPRP | 0.502
88 | RRIRSRPPRLPRPRPRPYHDPRP | -0.174
89 | RRIRKRPPRLPRPRPRPHFAPRP | 0.336
90 | RRIRNRPPRLPRPRPRPSKEPRP | -0.0243
91 | RRIRFRPPRLPRPRPRPEIGPRP | -0.0537
92 | RRIRERPPRLPRPRPRPPWWPRP | 0.537
93 | RRIRRRPPRLPRPRPRPCHRPRP | -0.0875
94 | RRIRMRPPRLPRPRPRPKLVPRP | 0.115
95 | RRIRCRPPRLPRPRPRPIHYPRP | -0.95
96 | RRIRDRPPRLPRPRPRPCLEPRP | 0.103
97 | RRIRQRPPRLPRPRPRPDGNPRP | -0.26
98 | RRIRMRPPRLPRPRPRPSISPRP | 0.000307
99 | RRIRPRPPRLPRPRPRPNEFPRP | -0.0949
100 | RRIRQRPPRLPRPRPRPWIPPRP | 0.0265

Row | Sequence | shrunken log2 fold change
101 | RRIRWRPPRLPRPRPRPESGPRP | 0.347
102 | RRIRFRPPRLPRPRPRPDPHPRP | 0.137
103 | RRIRHRPPRLPRPRPRPLFDPRP | -0.692
104 | RRIRERPPRLPRPRPRPPGPPRP | 0.478
105 | RRIRWRPPRLPRPRPRPLDWPRP | 0.355
106 | RRIRPRPPRLPRPRPRPRHRPRP | 0.177
107 | RRIRFRPPRLPRPRPRPSKKPRP | 0.0524
108 | RRIRCRPPRLPRPRPRPAIFPRP | -0.273
109 | RRIRTRPPRLPRPRPRPFCPPRP | -0.279
110 | RRIRNRPPRLPRPRPRPPSGPRP | -0.0646
111 | RRIRSRPPRLPRPRPRPINKPRP | -0.641
112 | RRIRLRPPRLPRPRPRPISDPRP | -0.014
113 | RRIRMRPPRLPRPRPRPNQLPRP | 0.0894
114 | RRIRNRPPRLPRPRPRPKESPRP | 0.149
115 | RRIRWRPPRLPRPRPRPNWGPRP | 0.105
116 | RRIRCRPPRLPRPRPRPCFCPRP | -0.367
117 | RRIRYRPPRLPRPRPRPLSCPRP | -0.0548
118 | RRIRWRPPRLPRPRPRPQLMPRP | 0.13
119 | RRIRVRPPRLPRPRPRPNHPPRP | -0.0266
120 | RRIRHRPPRLPRPRPRPHPTPRP | -0.0838
121 | RRIRARPPRLPRPRPRPWYCPRP | -0.306
122 | RRIRSRPPRLPRPRPRPDMFPRP | -0.212
123 | RRIRYRPPRLPRPRPRPQHDPRP | -1.4
124 | RRIRERPPRLPRPRPRPEYCPRP | 0.0191
125 | RRIRFRPPRLPRPRPRPQRSPRP | -0.105

Row | Sequence | shrunken log2 fold change
126 | RRIRCRPPRLPRPRPRPKLEPRP | -0.125
127 | RRIRQRPPRLPRPRPRPYETPRP | -0.427
128 | RRIRKRPPRLPRPRPRPSFMPRP | 1.94
129 | RRIRQRPPRLPRPRPRPIAYPRP | -0.133
130 | RRIRDRPPRLPRPRPRPDTSPRP | -0.114
131 | RRIRKRPPRLPRPRPRPYRYPRP | -0.14
132 | RRIRGRPPRLPRPRPRPADTPRP | 0.0689
133 | RRIRTRPPRLPRPRPRPQMWPRP | -0.0505
134 | RRIRYRPPRLPRPRPRPALTPRP | -0.044
135 | RRIRHRPPRLPRPRPRPPVSPRP | -0.0862
136 | RRIRCRPPRLPRPRPRPMMTPRP | 0.00323
137 | RRIRNRPPRLPRPRPRPDHPPRP | -0.0362
138 | RRIRQRPPRLPRPRPRPAFSPRP | 0.12
139 | RRIRIRPPRLPRPRPRPQMRPRP | 0.0729
140 | RRIRLRPPRLPRPRPRPIAGPRP | -0.086
141 | RRIRNRPPRLPRPRPRPENYPRP | -0.553
142 | RRIRNRPPRLPRPRPRPHPAPRP | 0.116
143 | RRIRHRPPRLPRPRPRPDTQPRP | 0.047
144 | RRIRKRPPRLPRPRPRPMQFPRP | 0.105
145 | RRIRLRPPRLPRPRPRPMMGPRP | -0.0316
146 | RRIRSRPPRLPRPRPRPCFWPRP | 0.294
147 | RRIRGRPPRLPRPRPRPINFPRP | -0.189
148 | RRIRHRPPRLPRPRPRPWTVPRP | -0.217
149 | RRIRERPPRLPRPRPRPPVWPRP | 0.634
150 | RRIRTRPPRLPRPRPRPCPYPRP | -0.411
